Experiment: yeast display, Sf9 membrane polyspecificity reagent, FACS + sequencing; frameworks hold sequencing errors
How it was run: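 Genes from sorted yeast were amplified by colony PCR, read by MiSeq 2 × 250 sequencing and filtered on CDR length. These cells carried a synthetic nanobody library in Saccharomyces cerevisiae BJ5465 and were sorted by FACS into low and high (top ~1%) gates on anti-HA and streptavidin fluorescence. Polyreactivity is labelled according to the gate of origin.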

| Sequence | polyreactivity (PSR sort gate) |
| --- | --- |
| QVQLVESGGGLVQAGGSLRLSCAASGFIFTQYAMGWYRQAPGKERELVAGITSSGNTYYADSVKGRFTISRDNAKNTVYLQMNSLKPEDTAVYYCAARSYVRRFDGGYWGQGTQVTVSS | high polyreactivity |
| QVQLVESGGGLVQAGGSLRLSCAASGFIFTRNVMGWYRQAPGKERELVAAISSGGRTYYADSVKGRFTISRDNAKNTVYLQMNRLKPEDTAVYYCSIVSKFTGDYGYWGQGTQVTVSS | high polyreactivity |
| QVQLVESGGGLVQAGGSLRLSCAASGFIFTRYAMGWYRQAPGKERELVATITSGGSTNYADSVKGRFTISRDNAKNTVYLQMNSLKPEDTAVYYCTARWTGSYTSTGFRRRFDYWGQGTQVTVSS | high polyreactivity |
| QVQLVESGGGLVQAGGSLRLSCAASGFIFTSYAMGWYRQAPGKERELVAAISGSAASTYYADSVKGRFTISRDNAKNTVYLQMNSLKPEDTAVYYCAADYQGYTPSDGRYYWGQGTQVTVSS | low polyreactivity |
| QVQLVESGGGLVQAGGSLRLSCAASGFIFTVNAMGWYRQAPGKERELVAAITQSCGNTSYADSVKGRFTISRDNAKNTVYLQMNSLKPEDTAVYYCNASSDTSRYGVSTYYYWGQGTQVTVSS | low polyreactivity |
| QVQLVESGGGLVQAGGSLRLSCAASGFIFTVNAMGWYRQAPGKERELVAAITQSGGNTSYADSVKGRFTISRDNAKNTVYLQMNSLKPEDTAVYYCNAEYTWPYHGVRNGWFNFKYEYWGQGTQVTVSS | low polyreactivity |
| QVQLVESGGGLVQAGGSLRLSCAASGFIFVANAMGWYRQAPGKERELVADINRGSTYYADSVKGRFTISRDNAKNTVYLQMNSLKPEDTAVYYCNRVYTQTYNPWGFEYWGQGTQVTVSS | high polyreactivity |
| QVQLVESGGGLVQAGGSLRLSCAASGFIFVDYAMGWYRQAPGKERELVASIDRSDGSTYYADSVKGRFTISRDNAKKTVYLQMNSLKPEDTAVYYCAADDPLYSISTGDYWGQGTQVTVSL | low polyreactivity |
| QVQLVESGGGLVQAGGSLRLSCAASGFIFVGNAMGWYRQAHGKERELVAAISRRGSRTFYADSVKARFTISRDNAKNTVYLQMNSLKPEETAVYYCAAEGYYVTPFDYWGQGTQVTVSS | high polyreactivity |
| QVQLVESGGGLVQAGGSLRLSCAASGFIFVGYGMGWYRQAPGKERELVAVITASGGSTYYADSVKGRFTISRDYAKKTVYLQMNSLKPEATAVYYCAARVGRYGYSEYYYWGHGTQVTVSS | high polyreactivity |
| QVQLVESGGGLVQAGGSLRLSCAASGFIFVKNAMGWYRQAPGKERELVAVISTRGGRTYYADSVKGRFTISRDNAKNTVYLQMNSLKPEDTAVYYCAADIWFYTYYEYDYWGQGTQVTVSS | high polyreactivity |
| QVQLVESGGGLVQAGGSLRLSCAASGFIFVKNAMGWYRQAPGKERELVAVISTRGGRTYYADSVKGRFTISRDNAKNTVYLQMNSLKPEDTAVYYCAAGDQYKTRRNGYGYWGQGTQVTVSS | high polyreactivity |
| QVQLVESGGGLVQAGGSLRLSCAASGFIFVKNAMGWYRQAPGKESELVAVISTRGGRTYYADSVKGRFTISRDNAKNTVYLQMNSLKPEDTAVYYCAAGDQYKTRRNGYGYWGQGTQVTVSS | high polyreactivity |
| QVQLVESGGGLVQAGGSLRLSCAASGFIFVKYAIGWYRTAPGKERELVAAITTSGTGTFYADSVKGRFTISRDNAKNTVYLQMNSLKPEDTAVYYCNALGHPGDDWGQGTQVTVSS | low polyreactivity |
| QVQLVESGGGLVQAGGSLRLSCAASGFIFVKYAMGWYRQAPGKERELVAAISWSGGTTYYSDSVKGRFTISRDNAKNTVYLKMNSLKPEDTAVYYCAAEYYTGYFKYDYWGQGTQVTVSS | high polyreactivity |
| QVQLVESGGGLVQAGGSLRLSCAASGFIFVLYAMGWYRQAPGKERELVAAITWSTGSTYYADSVKGRFTISRDNAKNTVYLQMNSLKPEDTAVYYCAADQYIFGIWFDYWGQGTQVTVSS | high polyreactivity |
| QVQLVESGGGLVQAGGSLRLSCAASGFIFVRNAMGWYRQAPGKERELVAAISSRGGRTYYADSVKGRFTISRDNAKNTVYLQMNSLKPEDTAVYYCNADRDTQGDGYDYWGQGTQVTVSS | high polyreactivity |
| QVQLVESGGGLVQAGGSLRLSCAASGFIFVRNAMGWYRQAPGKERELVAAITGRGGRTYYADSVKGRFTISRDNAKNTVYLQMNSLKPEVTAVYYCAIDSPDDHFGYWGQGTQVTVSS | high polyreactivity |
| QVQLVESGGGLVQAGGSLRLSCAASGFIFVRYAMGWYRPAPGKERELVAVITSGGSTYYADSVKGRFTISRDNAKNTVYLQMNSLKPEDTAVYYCAAQSKRYVRSYSWYDYWGQGTQVTVSS | high polyreactivity |
| QVQLVESGGGLVQAGGSLRLSCAASGFIFVRYAMGWYRQAPGKERELVAAISSGGSTQYADSVKGRFTISRDNAKNTVDLQMNSLKPEDTPVYYCAAAATPGRGGDYWGQGTQVTVSS | high polyreactivity |
| QVQLVESGGGLVQAGGSLRLSCAASGFIFVRYAMGWYRQAPGKEREMVAAISSGGSTKYADSVKGRFTISRDNAKNTVYLQMNSLKPEDTAVYYCAADATPGRGVDYWGQGTQVTVSS | high polyreactivity |
| QVQLVESGGGLVQAGGSLRLSCAASGFIFVSYAMGWYRPAPGKERELVAAIDRIGGITYYADSVKGRFTISRDNAKNTVYLQMNSLKPEDTAVYYCAAAARYATVRVGREYYWGQGTQVTVSS | low polyreactivity |

| Sequence | polyreactivity (PSR sort gate) |
| --- | --- |
| QVQLVESGGGLVQAGGSLRLSCAASGFIFVWYAMGWYRQAPGKERELVAAINGGGRTNYADSVKGRFTISRDNAKYTVYLQMNSLKPEDTAVYYGAAVSYYKSYGEFDYWGQGTQVTVSL | high polyreactivity |
| QVQLVESGGGLVQAGGSLRLSCAASGFIFVYNAMGWYRPAPGKERELVAAINGSGDSTYYADSVKGRFTISRDNAKNTVYLQMNSLKPEDTAVYYCAARYKVPLSRYILVLYDYWGQGTQVTVSS | low polyreactivity |
| QVQLVESGGGLVQAGGSLRLSCAASGFIFVYNAMGWYRQAPGKEREFVASITWSGGRTYYADSVKGRFTISRDNAKNTVYLLMNILKPEDTAVYYCATKYPNSQGRRYDYWGKGTQVTVSS | low polyreactivity |
| QVQLVESGGGLVQAGGSLRLSCAASGFIFVYNDMGWYRQAPGKERELVAAISSSGGSTYYADSVKGRFTISRDNAKNTVYLKMNSLKAEDTAVYYCAKTGWNLDYSYSTDGYDYWGQGTLVTVSS | high polyreactivity |
| QVQLVESGGGLVQAGGSLRLSCAASGFIFVYYAMGWYRQAPGKERELVAAINQSGGRTYYADSVKGRFTISRDNAKNTVYLQMNSLKPEDTAVYYCAAESWDLYRYGQKHEYWGQGTQVTVSS | low polyreactivity |
| QVQLVESGGGLVQAGGSLRLSCAASGFIFVYYAMGWYRQAPGKERELVAAISSDGSTNYADSVKGRFTISRDNAKNTVYLQMNSLKPEDTAVYYCNARYVASPSGKRRLIDVDYWGQGTQVTVSS | low polyreactivity |
| QVQLVESGGGLVQAGGSLRLSCAASGFIFVYYGMGWYRQAPGKERELVAAISRSGGSTYYADSVKGRFTISRDNAKNTVYLQMNSLKPEDTAVYYCAARPDRSSQFDSWGQGTQVTVSS | high polyreactivity |
| QVQLVESGGGLVQAGGSLRLSCAASGFIFVYYGMVWYRQAPGKERELVAAISRSGGSTYYADSVKGRFTISRDNAKNTVYLQMNSLKPEDTAVYYCNVVRWYYHPPLTGSRFDYWGHGTQVTVSS | high polyreactivity |
| QVQLVESGGGLVQAGGSLRLSCAASGFIFWFNAMGWYRQAPGKERELVATISWSDTSTYYADSVKGRFTISRDNAKNTVYLQMNSLKPEDTAVYYCATDGRETWLPEYYWGQGTQVTVSS | low polyreactivity |
| QVQLVESGGGLVQAGGSLRLSCAASGFIFWKYAMGWYRQAPGKEREFVAAINWRGDRTYYADSVKGRFTISRDNAKNTVYLQMNSLKPEDTAVYYCAAVVGYYHRRFDYWGQGTQVTVSS | high polyreactivity |
| QVQLVESGGGLVQAGGSLRLSCAASGFIFWPYAMGWYRQAPGKERELVAAITTGGSTNYADSVKGRFTISRDNAKNTVYLQMNSLKPEDTAVYYCAKGYYFGYYEFDYWGQGTQVTVSS | high polyreactivity |
| QVQLVESGGGLVQAGGSLRLSCAASGFIFWQYAMGWYRQAPGKERELVAAISGRGGRTYYADSVKGRFTISRDNAKNTVYLQMNSLKPEDTAVYYCNKVGPLVGGVKYYYWGQGTQVTVSS | high polyreactivity |
| QVQLVESGGGLVQAGGSLRLSCAASGFIFWQYTMAWYRQAPGKERELVAAISFSGGRTYYADSVKGRFTISRDNAKNTVYLQMNSLKPEDTAVYYCAASAVPRQKGFYYWGQGTQVTVSS | high polyreactivity |
| QVQLVESGGGLVQAGGSLRLSCAASGFIFWRYAMGWYRQAPGKERELVAAISSGGNTKYADSVKGRFTISRDNAKNTVYLQMNSLKPEDTAVYYCAVLGKYLWSATNRFPGSYDSWGQGTQVTVSS | high polyreactivity |
| QVQLVESGGGLVQAGGSLRLSCAASGFIFWSYAMGWYRQAPGKERELVAAISWSGGRTYYADSVKGRFTISRDNAKNTVYLQMNSLKPEDTAVYYCAAVKRYSSQYPALDYWGQGTQVTVSS | high polyreactivity |
| QVQLVESGGGLVQAGGSLRLSCAASGFIFWYYAMGWYRQAPGKERELVAAISARDGSTYYADSVKGRFTISRDNAKNTVYLQMNSLKPEDTAVYYCNAVQRYPKFRMDYWGQGTQVTVSS | low polyreactivity |
| QVQLVESGGGLVQAGGSLRLSCAASGFIFYAYAMGWSRQAPGKERELVAAISGSGGSTYYADSVKGRFTISRDNAKNTVYLQMNSLKPEDTAVYYCAARSRVSNRSYYYWGQGTQVTVSS | high polyreactivity |
| QVQLVESGGGLVQAGGSLRLSCAASGFIFYDYDMGWYRQAPGKERELVAAITYSGGSTYYADSVKGRFTISRDNAKNTVYLQMNSLKPEDTAVYYCAAVKSRYAEAVDYYYWGLGTQVTVSS | low polyreactivity |
| QVQLVESGGGLVQAGGSLRLSCAASGFIFYDYMGWYRQAPGKERELVAVISYSGSSTYYADSVKGRFTISRDNAKNTVYLQMNSLKPEDTAVYYCAARNVNGWDYDYWGQGTQVTVSS | low polyreactivity |
| QVQLVESGGGLVQAGGSLRLSCAASGFIFYGYAMGWYIQAPGKERELVATISRRGGSTYYADSVKGRFTISRDNAKNTVYLQMNSLKPEDSAVYYCAKRRGTQEPTYVPTRSNGFDYWGHGTQVTVSS | low polyreactivity |
| QVQLVESGGGLVQAGGSLRLSCAASGFIFYHYAMGWYRQAPGKERELVAAISRRTGSTYYADSVKGRFTISRDNAKNTDYLQMNSLKPEDTSVYYCAADAYFIYSRYWYDYWGQGTQVTVSS | high polyreactivity |
